Reference: US20240368668A1, “SUBSTRATES AND BIOMARKERS OF ADAMTS7” (The Broad Institute, Inc., priority 2021, published 2024)
Square brackets hold non-standard residues; d marks the D form. Ends that are not written are not given here.

Biological target: T1, mouse ADAMTS7 (Mus musculus, UniProt Q68SA9, E373Q)
T1 construct: Full-length mouse Adamts7 1-1857 (Uniprot Q68SA9, WT or E373Q catalytic mutant); expressed in transfected cells; host or cells: Human Coronary Artery Smooth Muscle Cells (HCA-SMC, Lonza), adenovirus 50 MOI
T1 sequence (Q68SA9 221-1657 E373Q): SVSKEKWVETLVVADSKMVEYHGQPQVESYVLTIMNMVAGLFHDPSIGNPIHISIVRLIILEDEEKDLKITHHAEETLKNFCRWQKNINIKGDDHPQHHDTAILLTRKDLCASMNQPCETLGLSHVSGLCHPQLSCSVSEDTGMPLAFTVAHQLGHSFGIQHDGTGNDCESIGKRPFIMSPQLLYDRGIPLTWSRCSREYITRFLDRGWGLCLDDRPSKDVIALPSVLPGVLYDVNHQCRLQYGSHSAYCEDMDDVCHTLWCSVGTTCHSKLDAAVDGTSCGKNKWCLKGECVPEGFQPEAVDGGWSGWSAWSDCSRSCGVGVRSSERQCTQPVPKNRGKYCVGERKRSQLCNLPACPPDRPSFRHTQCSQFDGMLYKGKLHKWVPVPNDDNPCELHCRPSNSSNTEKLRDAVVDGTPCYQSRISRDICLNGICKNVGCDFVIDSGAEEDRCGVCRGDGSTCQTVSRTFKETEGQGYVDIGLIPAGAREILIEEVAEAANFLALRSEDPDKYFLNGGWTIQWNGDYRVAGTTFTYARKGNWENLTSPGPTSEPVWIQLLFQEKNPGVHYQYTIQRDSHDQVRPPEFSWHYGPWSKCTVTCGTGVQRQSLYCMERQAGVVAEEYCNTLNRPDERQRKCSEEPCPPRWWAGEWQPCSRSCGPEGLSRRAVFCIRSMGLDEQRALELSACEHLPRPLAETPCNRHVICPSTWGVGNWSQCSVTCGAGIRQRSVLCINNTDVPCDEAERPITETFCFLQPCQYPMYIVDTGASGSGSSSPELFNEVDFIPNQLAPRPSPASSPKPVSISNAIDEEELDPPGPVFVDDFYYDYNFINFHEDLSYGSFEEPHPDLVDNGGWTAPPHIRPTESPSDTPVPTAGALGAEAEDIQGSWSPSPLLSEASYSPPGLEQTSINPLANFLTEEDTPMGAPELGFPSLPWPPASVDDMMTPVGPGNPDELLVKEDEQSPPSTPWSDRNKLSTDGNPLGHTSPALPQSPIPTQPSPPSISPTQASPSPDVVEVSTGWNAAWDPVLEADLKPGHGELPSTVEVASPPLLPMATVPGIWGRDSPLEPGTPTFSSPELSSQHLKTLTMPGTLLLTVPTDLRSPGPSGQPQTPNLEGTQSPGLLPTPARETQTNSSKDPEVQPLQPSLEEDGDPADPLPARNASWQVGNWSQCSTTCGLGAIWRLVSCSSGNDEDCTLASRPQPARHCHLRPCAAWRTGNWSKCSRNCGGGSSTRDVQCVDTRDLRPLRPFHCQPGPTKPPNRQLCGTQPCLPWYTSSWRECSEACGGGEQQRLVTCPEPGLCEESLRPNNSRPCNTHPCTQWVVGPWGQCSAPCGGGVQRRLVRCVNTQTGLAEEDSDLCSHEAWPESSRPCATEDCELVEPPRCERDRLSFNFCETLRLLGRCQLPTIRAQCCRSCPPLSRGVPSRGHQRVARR
Experiment: TMT10 TAILS N-terminomics, SMC1 experiment (Ad-mADAMTS7 WT vs EQ vs Luc, technical replicates, trypsin digest)
Assay type: cell-based
Settings: TAILS neo-N-terminal peptide abundance; log fold change, Ad-mADAMTS7 EQ over Luc
From the text: ADAMTS7 Expression, Cell Culture and Preparation of the Secreted Proteins—Full-length mouse Adamts7 1-1857 (Uniprot Q68SA9, WT or E373Q catalytic mutant) with a carboxyl terminal 3xFLAG tag was used to generate custom adenoviruses as previously described. Adeno-CMV-Luciferase (Ad-Luc) from Vector Biolabs was used as a negative control. Human Coronary Artery Smooth Muscle Cells (HCA-SMC) were obtained from Lonza and expanded in Lonza SmGM-2 media in 15 cm tissue culture plates. Twenty-four hours before media collection, near confluent plates were transduced with 50 MOI adenovirus and switched to Lonza Basal SM media with volumes of 20 ml per 15 cm plate. Expression of the Flag tagged ADAMTS7 was confirmed from the media using western blot and detected using the anti-Flag M2-HRP antibody (Sigma, A8592). Collected media was processed by adding protease inhibitors (1 mM EDTA and 1 mM PMSF) and clarified by 500 g×5 min spin at 4 C to pellet cell debris. Cell media supernatants were then passed through a 0.22 um filter and kept chilled. Processed media was then concentrated 50-100× using 3 kDa Centricon Plus-70 filter unit, spun at 3,500 g×60 min at 4 C. Approximately 10% of the processed, concentrated media was set aside for total secretome proteolytic analysis. The remaining 90% of the processed, concentrated media was buffer exchanged into 50 mM HEPES pH 8.0, 150 mM NaCl (2×50 ml) using the 3 kDa Centricon Plus-70 filter unit and concentrated to >2 mg/ml to serve as input for the TAILS experiment. Secretome and TAILS input samples were stored at −80° C.
For the first experiment, referred to as SMC1, 120 ml of media from 6×15 cm dishes was pooled from each condition (Luc, WT, EQ) and processed to produce three separate inputs for the TAILS experiment. Luc, WT and EQ inputs from the SMC1 experiment were each divided into triplicate 400 ug samples to generate technical replicate TAILS data. For the second experiment, referred to as SMC2, media was processed separately in triplicate for each condition (Luc1, Luc2, Luc3, WT1, WT2, WT3, EQ1, EQ2, EQ3) using 60 ml of media from 3×15 cm dishes for each process replicate. Inputs from the SMC2 experiment used process replicates of 300 ug each to generate TAILS data. The third experiment used input from cultured Human umbilical vein endothelial cells (HUVEC) from Lifeline Cell Technology grown in VascuLife Media and transduced in Lifeline Basal EC (+bFGF2 10 ng/ml). The HUVEC experiment used the same strategy as the SMC2 experiment, with 40 ml of media from 2×15 cm dishes for each process replicate and used 200 ug each to generate TAILS data. Inputs for process replicate experiments were restricted to the lowest concentration from the 9 parallel samples for SMC2 or HUVEC.
TMT10 isotopic labeling and negative selection of non-labeled peptides-Sample preparation was performed based on the TAILS protocol from the Overall lab with some modifications. From a single experiment, nine parallel protein samples in 50 mM HEPES pH 8.0, 150 mM NaCl were separately denatured with guanidinium chloride (Sigma, G4505) to reach a final concentration of 2.5M guanidinium chloride and 250 mM HEPES and incubated at 65° C. for 15 min. Reduction was achieved through addition of tris(2-carboxylethyl) phosphine (TCEP) at a final concentration of […] and incubated at 65° C. for 45 min. Alkylation reaction was performed with addition of iodoacetamide (IAA, Sigma, A3221) to a final concentration of 10 mM IAA for 15 min at room temperature in the dark. Following denaturation, reduction and alkylation steps, ten percent of each of the nine parallel protein samples was removed and combined to serve as a pooled reference. Isobaric tags were added to free amine groups using the TMT10plex Isobaric Mass Tagging Kit (ThermoFisher, 90113) with TMT channels randomly assigned to the nine samples and TMT 131 assigned to the pooled reference. […]

Substance	logFC.mEQ.over.Luc
LTBP1_393 (LTATNFR; listed as Homo sapiens)	0.14
HSPG2_3542 (IAHVELADAGQYR; listed as Homo sapiens)	−0.07
HSPG2_3672 (SFLPLPTIKDAYR; listed as Homo sapiens)	0.06
LOXL2_318 (AYKPEQPLVR; listed as Homo sapiens)	0.00
FBLN2_260 (LGPPAPVQAKAR; listed as Homo sapiens)	−0.74
GSN_413 (HIANVER; listed as Homo sapiens)	−0.20
HSPG2_2331 (ANLAYPAGSTQPIR; listed as Homo sapiens)	0.03
FBN1_53 (LKGPNVCGSR; listed as Homo sapiens)	−0.04
LTBP2_1560 (TTYTECCCQDGEAWSQQCALCPPR; listed as Homo sapiens)	0.23
GSN_35 (SQAGAPQGR; listed as Homo sapiens)	0.05
FN1_1731 (FTDVDVDSIKIAWESPQGQVSR; listed as Homo sapiens)	−0.11
HSPG2_2333 (LAYPAGSTQPIR; listed as Homo sapiens)	0.01
EFEMP1_124 (AVAGPEMQTGR; listed as Homo sapiens)	−0.59
LTBP2_1023 (GKCTNLEGSFR; listed as Homo sapiens)	0.03
FN1_281 (SGSGPFTDVR; listed as Homo sapiens)	0.56
CCDC80_66 (LEEPNLQPLQR; listed as Homo sapiens)	0.14
FN1_1656 (SSSPVTGYR; listed as Homo sapiens)	−0.08
ACTB_21 (FAGDDAPR; listed as Homo sapiens)	−0.08
LTBP1_540 (HQQVIPHVYPVAAKTQLGR; listed as Homo sapiens)	0.13
IGFBP3_31 (SAGLGPVVR; listed as Homo sapiens)	−0.04
HSPG2_1937 (SSAGQQVAR; listed as Homo sapiens)	−0.15
LTBP1_494 (SVQIHQVSR; listed as Homo sapiens)	−0.01
HSPG2_3250 (SPLPWQHR; listed as Homo sapiens)	0.00
LASP1_123 (HEEFEKSR; listed as Homo sapiens)	−0.53
LOX_124 (WFQAGYSTSR; listed as Homo sapiens)	0.08

Substance	logFC.mEQ.over.Luc
FLNA_1285 (LTQTGGPHVKAR; listed as Homo sapiens)	−0.11
FLNA_695 (FTVDAKHGGKAPLR; listed as Homo sapiens)	−0.25
HSPG2_4075 (GCVGEVSVNGKR; listed as Homo sapiens)	0.02
FBN1_29 (LEAGNVKETR; listed as Homo sapiens)	0.21
GALNT2_31 (LAGGAGGGAGR; listed as Homo sapiens)	−0.43
LTBP2_485 (SVQIHQVAQVR; listed as Homo sapiens)	−0.42
LTBP1_546 (HVYPVAAKTQLGR; listed as Homo sapiens)	−1.05
FN1_40 (QSPVAVSQSKPGCYDNGKHYQINQQWER; listed as Homo sapiens)	−0.40
HSPG2_2688 (VADSGEYVCR; listed as Homo sapiens)	0.14
HEG1_49 (GAGLELQLER; listed as Homo sapiens)	0.51
EFEMP1_125 (VAGPEMQTGR; listed as Homo sapiens)	−0.33
LOXL1_219 (VASAGVIYPYQPR; listed as Homo sapiens)	−0.10
LOXL2_37 (FQQPAPEYHQPQAPANVAKIQLR; listed as Homo sapiens)	0.09
LTBP2_533 (SGEPPRPLPPAAPR; listed as Homo sapiens)	0.28
FBLN2_259 (ALGPPAPVQAKAR; listed as Homo sapiens)	−0.01
EHBP1L1_298 (TAPTPAPR; listed as Homo sapiens)	−0.22
HSPG2_4021 (LNKDGSLR; listed as Homo sapiens)	−0.02
AEBP1_37 (FLEGFLSELEPEPR; listed as Homo sapiens)	−0.18
FN1_2143 (FEEHGFR; listed as Homo sapiens)	−0.13
LOXL2_38 ([code q]QPAPEYHQPQAPANVAKIQLR; not fully specified; listed as Homo sapiens)	0.11
IGFBP7_101 (AAGGPGVSGVCVCKSR; listed as Homo sapiens)	0.29
APLP2_579 (ISETPVDVR; listed as Homo sapiens)	0.27
LTBP2_760 (SSGALPGPAER; listed as Homo sapiens)	0.29
LOX_80 (ANASAQQPR; listed as Homo sapiens)	−0.16
